Assay results taken from the DeepSol protein solubility set.

Test: soluble on expression in E. coli; label from the status in PepcDB or PDB records

| Sequence | soluble on expression in E. coli |
| --- | --- |
| MSLAEIAYITAKADLPFWDTVGKGVKAVAEANGYAFSELDSKLSAEMQLNNVRQAIDRRVAGIVISPTNSKSAEEALILARRAKIPVAIADIGASGGDYVSFVKSDNYRGAYDVGTELAKAMKAQNWASGAYGMVTIELSRKNGQDRTNGFRDAMKDAGFPREIVLRQMKDYSAEETYRYVKEMLAAHPGLRGFFIETDQPVAGALRAIREAGKEKQLLLVSFDAMPDVVRLLKSGALVAVGMQQPYLMGSSAAGALVSRLRGHPPAKEILVPVLVATGRNVDQLMPVAARTVFGKPLKEGHHHHHH | soluble |
| MGSDKIHHHHHHMTGFYEFFSLPDRVEVVCPLCDGCATFTYAHVLQIEKKDAHLFENEQFEIKLFNQRFAHKWPCVLFFPPLFGAVSWREKFPEKYQGASTWEHRANSAFTDGTDLGLICCHQCMAKQKHQLEWPQDAFYSIEFKGHLLWAFNKMMMQQIRDYIQAKDRDAVFASEPIVIRHLPTVFKLAKNREGLVKKINKLIYRP | not soluble |
| MGSDKIHHHHHHMIIDTSCYPTNLVDLAWRHDGEPFSGERLIQMMDGPFTINGKPRRIDKAFIQPPQGNTIYTWTDGEKSGSESIDAYMAYTVEMVKKYPDRFIGCFVYNPRCGVQNGVNAIEHYVKTLGFKMVQFQANMHAYRPDRALDWLRPALQKCAELGVLVKLHTGDGPYSIPTEWVPMMKEFPTVNFIMAHFGVQTGGVYCFEPFQMAMDMPNVYCESGWCLQSRIVEFAKVLPKHKILFGSDTPPNEPGMWLRLLEVLCFEPPQGLNLDEDTLEDYLGNNVARMIGLEPTPVPRTLEEARARLAA | not soluble |
| MQPFDSRQADEVATLLALAEHGSFAAAGRALQRHPSVLSKRLGALERRLGIRLVERTTRQLRFTDEGERLASRFRQAVDLLDEAEHEASLGAAQLRGRLRIALPSAMGRLWLGPLLAEFALAHPQVVLETDYSERFVDIIAEGFDLAIRVGELADSRLVARRLCAHRRILGAAPDYLKRHGVPRIPADLAAHNCLGFSGLHSYPEWKLTRQDEQQPVRVRGSMVSNDNEALLCAARQGLGIFAAGEWLMSRDLEAGRLVRVLPEWKLDADAGVYLVRPSARYATAAASAFRQWVEARFAAGPPWQRQRA | not soluble |
| SLVDLAADILVADAHMHTNPTRGLGAREVARRFRREGGWFAALLTLTTWSYGLAPTGVEAYRRMYEIHLRECRAAREEGLRVACFAGIHPAEVDRMIDKHRQPPEKALETALEAVEVLRRLCREGAIDGVGEVGRQHYRTSPLRVAIAEVVLEEAAAAALEEGCLLQLHLENEGPATVETVDRILRRAGATGARRGMVIFHHATLRVAKEAVARGYNATIPGVPKLLEHAAANEPPDYMVESDYLDDPARPGAVVEPWKMAQKLREIASRTPETREWVRRTNIDLVERVFQASPP | not soluble |
| MEVEKYDLTLDFDIQKRTFNGTETITADAGDIVLDAVGLQINWMKVNGRDTAFTYDGQTVRAPGDSQPQKIEISFAGKVSDSLSGIYYAGRENGMITTHFEATDARRMFPCVDHPAYKAVFAITVVIDKDYDAISNMPPKRIEVSERKVVEFQDTPRMSTYLLYVGIGKFRYEYEKYRDIDLILASLKDIRSKYPLDMARKSVEFYENYFGIPYALPKMHLISVPEFGAGAMENWGAITFREIYMDIAENSAVTVKRNSANVIAHEIAHQWFGDLVTMKWWNDLWLNESFATFMSYKTMDTLFPEWSFWGDFFVSRTSGALRSDSLKNTHPIEVDVRDPDEISQIFDEISYGKGASILRMIEDYAGYEEFRKGISKYLNDHKFGNAEGSDLWTAIEDVSGKPVKRVMEYWIKNPGYPVIKLKRNGRKITMYQTRFLLNGEEEGRWPVPVNIKKKDGVERILLEDEASIEADGLIKINADSAGFYRVLYDDATFSDVMGHYRDLSPLDRIGLVDDLFAFLLSGHIDPETYRQRIRNFFDDEDHNVITAIVGQMEYLRMLTHAFDDDARAFCRSRMQFLTGKQDENLKIALGRVSRLYVMVDESYAEEMSKLFKDFDSAEPEMRSSIATAYALVTGDLKGLLEKFRSVDRDEDRVRIISAFGKLKSNTDLSTVYGMVEKTEIKKQDMISFFSSALETLPGREFIFANLDRIIRLVIRYFTGNRTASRTVEMMIPVIGLDHPDAEDIVRNIGSKNISMGLAKGIEMLAVNRKLVERIRQTAVK | soluble |
| MKIQCDVCEKAPATVICCADEAALCPQCDIEIHAANKLASKHQRLHLNSLSTKFPRCDICQEKAAFIFCVEDRALLCRDCDESIHVANSRSANHQRFLATGIKVALTSTICSKEIEKNQPEPSNNQQKANQIPAKSTSQQQQQPSSATPLPWAVDDFFHFSDIESTDKKGQLDLGAGELDWFSDMGFFGDQINDKALPAAEVPELSVSHLGHVHSYKPMKSNVSHKKPRFETRYDDDDEEHFIVPDLG | not soluble |
| MGSDKIHHHHHHAQLVERVCRTDYKISPERKGELLLELDNISFFKDNEFAGTVIKGYSLPGLWIQPKFVYYPLKNIKLEGGVHMLWFSGAYRYPSVSYQDIALWKGEQYQKGAHLLPFFRAQISMKSVDLILGNIYGGSNHGLIAPLYNPELNLTADPETGFQVLAGAPWIDLDAWIDWQSFIFRDDTHQEAFTVGLSTRFKLNAPSSTFHCYIPLQILAQHRGGEIDTIRESSVQTLMNGAVGAGVTWNIDRRILKRVNVELDAAGYYQQKGELWPYHKGIGVYSSAFVDLGNFRVKMGHWICNDFITMFGIPYFGTVSTKKEGITYDKPQTLFCSIEYSRMFGKHYALGLKADAYQFFPGTMRSANGELTSPGSTTSFSVGVYFRINPSFLLKKF | not soluble |
| MGSDKIHHHHHHMSDALLNAGRQTLMLELQEASRLPERLGDDFVRAANIIIHCEGKVIVSGIGKSGHIGKKIAATLASTGTPAFFVHPAEALHGDLGMIESRDVMLFISYSGGAKELDLIIPRLEDKSVALLAMTGKLHSPLGRAAKAVLDISVEREACPMHLAPTSSTVNTLMMGDALAMAVMQARGFNEEDFARSHPAGALGARLLNNVHHLMRQGDAIPQVMLATSVMDAMLELSRTGLGLVAVCDEQHVVKGVFTDGDLRRWLVGGGALTTPVSEAMTPNGITLQAQSRAIDAKELLMKRKITAAPVVDENGKLTGAINLQDFYQAGII | not soluble |
| MASECVDENSKPWMRVTVSCALLPEVLKQGAEAGGAVKLTGNPSEQSSEDGSHHCSSNFQNSPVTSDLSVLDASPCGLPAEKRKPPHRETSISSNASQSEREIAPTATRRLSPKPETATLSPSESSSLTAATLSNCSSRVQSSSDEKIGNCPSTSACSVSQTTASSEAPSWLSSGASTAQVLSERRGSIEEQPAPETSAAAVRVSRSSSDSENLFASCSASLRNLEPDDISDPENEAAAPACAETGASRAQDAAAVRADAENLGEGESHMETASTRAESLAKDAISSKVSRRGSAHTSSDASGQCQDALPSVGEGKPGEMNGREEDGEAEKPEASAESLQGSDGQANESEAPKPGGGRVDAKMRAKFKREFVRSWVDINRAPSWPPIKKNKYLSSDWKRVDLRTAAGEIRVETKKHRLFLNDLCFLFDGVYTQKSTLGRKAGLGLFCERPEGLHKGQIITEFVGWLVDRDLAESYRKQRTASHIVAVQKGFLYIDGAKEPAYGMGGGSFANDGSEFLGGPGNNAQFYHWFDDELGRTRVFLRATADIKNGEEIFVPYHKTYWVDNFEEQAENCPDAFKQRKLEQLRRRYKNPEFVHIPHREEVAMREREEAERRKRDKEESEKKKAAAKQPRCPVKRPCSAYLLFSVARRKELLKACGILSKGDDEPASQQVSESPEVPREGQRKRRASSASQAAAPVPAAANKRRKAEKDEPSSPEETKRGQVVAAAGLKRGAARPACVGDETAQKLAGWLAKDGAANVRTLCAELTREVAREWGNMRPEEKKPWEQLAEKEKIRYAKAVRTWREKLKKKKSGRETATRKRKVPCSRKGHGTEKGEKAGKVKPQADTSPREAAPEGTETRDHEDVQAGAKDRAATQKER | soluble |
| MSKKIVLALGGNALGDDLAGQMKAVKITSQAIVDLIAQGHEVIVTHGNGPQVGMINQAFEAAAKTEAHSPMLPMSVCVALSQGYIGYDLQNALREELLSRGINKPVATLVTQVEVDANDPAFLNPTKPIGSFFTEQEAEQLTKQGYTLKEDAGRGYRRVVASPKPVDIIEKETVKALVDAGQVVITVGGGGIPVIREGNHLRGASAVIDKDWASARLAEMIDADMLIILTAVEKVAINFGKENEQWLDRLSLSDAERFIEEGHFAKGSMLPKVEAAASFARSRAGREALITVLSKAKEGIEGKTGTVICQ | not soluble |
| VLLKEGARGSAPSAPPPLAVPAFFPLEPLTVNLQSDDGVQHYLRVGLSLKLTDPKAQEYLTQHMPELRSRILLALSNKHPEQLATLEGKRALADELKTLIEQPTQPGNQSARVDDVLFTEFVVQ | not soluble |
| MNKNSTSNKKNSKNKKKVDKLDLILNEFKNDIKNEKGENNQNDNKLLNGAIETNNNNNNNNNNSGNNRIHFDKEEIKEIKKKIILKEHVLEEQDNSSIRLLKNWPQLEKTYQTNPPCIPIDMIYGKDGKYPVGEILEYNNYNLSGQSLVEKKEREKLSIDYYEDLRKAAECHRQVRKHMQAFIKPGKKMIDIAQETERKTKELILAEKLKCGWGFPTGCSLNHCAAHYTPNYGDETVLKYDDVCKLDFGVHVNGYIIDCAFTIAFNEKYDNLIKATQDGTNTGIKEAGIDARMCDIGEAIQEAIESYEIELNQKIYPIKAISNLRGHSINKYIIHGGKCVPIVRQKEKNEIMEEGELFAIETFASTGKGYVNHENECSHYMRNPEKQFVPIRLNSAKTLLKVINDNFDTLPFCNRWLDDLGQTRHFMALKTLIDLNIVEPYPPLCDIKNSFTSQMEHTILLRPTCKEVLSRG | not soluble |
| MGSDKIHHHHHHMKVQFLGAARTVTGSCYVVESGGVRFAVDCGMHQGNHEIEKRNYETDVYSPETIDFFLITHAHIDHTGLLPRMVRDGFTGPVYCTEPTRDLLEIMLQDSANIQEMEAEWQTRKQKRKGRKPVDPLYTFADAARVSRFFENVEYNRPFSPVEGVTVTYKDAGHILGSAFLEIEVCEHGRCSRLIFSGDLGKPNSLIVRDPEAAAAADYLFVESTYGDRNHKDESNSRQELAEAIAYSYRQGEKVIIPAFAVERTQEVLYTLFLLQKEGRMPVDMPIFLDSPLAIRATEIFRKHPRFFDEEMQKLLLSGEDPFAMPSLRLTTKTQESQAINNYTGPAVIISASGMCNAGRIKHHLRHNIWRPGASIVFVGYQAVGTPGRRIVDGARSIRLFGEEIAIQAKVFTIGGFSGHAGQSQILDWVGKFATKEMKVFLVHGEEKAQQALKAILEEKYELSVHSPGYLEEIELEPGEAVVTTGDPQRYQPQLNWDFLLSETEARMMQLRARKGDIEHADWAQQVEIRDRLLELNNEMLGILSEL | not soluble |
| SEASFVQTTMALGLPSKKASSRNVIVERRNLITVCRFSVKTLLEKYTAEPIDDSSEEFVNFAAILEQILSHRFKACAPAGPASWFSSDGQRGFWDYIRLACSKVPNNCVSSIENMENISTARAKGRAWIRVALMEKRMSEYITTALRDNRTTRRFYDSGAIMLREEATVLTGMLIGLSAIDFSFCLKGEVLDGKTPVVIDYTPYLKFTQSYDYLTDEEERHSAESSTSEDNSPEHPYLPLVTDEDSWYNKWHKMEQKFRIVYAQKGYLEELVRLRESQLKDLEAENRRLQLQLEEAAAQNQREKRELEGVILELQEQLPDPPPPPRTGLIPGDHAPLAQGSKELTTSLVNQWPSLSTLHRPEGASNSKLYRRHSFMSTEPLSAEASLSSDSQRLGEAKRDEEPWGPIGSSEPN | not soluble |
| MKIALINENSQASKNHIIYDSLKEATDKKGYQLFNYGMRGEEGESQLTYVQNGLMAAILLNTKAVDFVVTGCGTGVGAMLALNSFPGVVCGLAVDPTDAYLYSQINGGNALSIPYAKGFGWGAELTLKLMFERLFAEEMGGGYPRERVIPEQRNARILNEVKQITHNDLMTILKIIDQDFLKDTISGKYFQEYFFENCQDDEVAAYLKEVLA | not soluble |
| MAFELPALPYAKDALEPHISAETLDFHHGKHHNTYVVKLNGLIPGTEFENKSLEEIIKTSTGGIFNNAAQVWNHTFYWHCLSPNGGGEPTGAVAEAINAAFGSFADFKAKFTDSAINNFGSSWTWLVKKADGTLAITNTSNAATPLTEEGVTPLLTVDLWEHAYYIDYRNVRPDYMNGFWALVNWDFVAQNLAK | not soluble |
